Results on one substance are retold here after PMC12364344.

The target in this test is His6-BacA_(F134R), purified (Asticcacaulis biprosthecum). Nature of the test: SEC; 500 µl of purified proteins from the polymerization assay on Superdex 200 Increase 10/300 GL, column calibrated with standard proteins. For orientation: Size exclusion chromatography separates by hydrodynamic size, large species first.

In general, stoichiometry N refers to the number of molecules, sites or subunits per partner or assembly. “His6-BacA_(F134R), purified (natural protein)” displayed a stoichiometry N of 2.
